Values joined by “and” are separate entries in the source; they are usually repeats but may differ in a detail not shown here. Identical values can stand only once. Like-named read-outs stand apart in the source and are kept apart here.
Experiments:
[1] = tested on: murine colon adenocarcinoma cell line CT26; experiment: In vitro cytotoxicity; type: cell-based; details: for fold more potent than CPT-11: ratio of IC50 values
CT26 tumor xenograft = type: in vivo, BALB/c mice; details: for Body weight Final / Body weight Initial / IRT (inhibition ratio of the tumor) / Tumor weight Mean ± SD: n=8; for Histological section examination of tumor (H&E): day 14
Drug-loading measurement = type: physicochemical; details: weight of SN38 / weight of prodrug, HPLC with UV detector, triplicate
[2] = Particle size and zeta potential of micelles; type: physicochemical; details: 25°C, n=3
[3] = Critical micelle concentration; type: physicochemical; details: aqueous medium, coumarin-6 probe
[4] = Pharmacokinetic study after intravenous administration to SD rats; details: n=6; for Cmax of free SN38: free SN38 in plasma, intravenous 10 mg/kg (equivalent to SN38); for AUC0–24 of prodrug / Cmax of prodrug: prodrug form in plasma (equivalent to SN38); for AUC0–24 of prodrug / Cmax of prodrug / CL of prodrug / MRT0–24 of prodrug / T1/2 of prodrug: intravenous 10 mg/kg; for CL of prodrug / MRT0–24 of prodrug / T1/2 of prodrug: prodrug form in plasma
[5] = In vitro drug release by dialysis; type: physicochemical; details: by 48 hours, 37°C, pH 6.5 PBS, pH 7.4 PBS, 25% liver homogenate, 50% plasma; P<0.05
[6] = 1.25 mg/kg (equivalent to SN38) i.v. every 2 days for 2 weeks
[7] = 2.5 mg/kg (equivalent to SN38) i.v. every 2 days for 2 weeks
[8] = CT26 cells, 48 hours incubation, MTT, equivalent to SN38, mean ± SD, n=3

Compound	IC50 ([1]; Mus musculus, CT26, 48 h)	Body weight Final (CT26 tumor xenograft; [6])	Body weight Initial (CT26 tumor xenograft; [6])	IRT (inhibition ratio of the tumor) (CT26 tumor xenograft; [6])	Tumor weight Mean ± SD (CT26 tumor xenograft; [6])	Histological section examination of tumor (H&E) (CT26 tumor xenograft; 1.25 mg/kg)	Body weight Final (CT26 tumor xenograft; [7])	Body weight Initial (CT26 tumor xenograft; [7])	IRT (inhibition ratio of the tumor) (CT26 tumor xenograft; [7])	Tumor weight Mean ± SD (CT26 tumor xenograft; [7])	Histological section examination of tumor (H&E) (CT26 tumor xenograft; 2.5 mg/kg)	drug loading (Drug-loading measurement)	mean particle size [2]	mean zeta potential [2]	CMC (critical micelle concentration) [3]	Cmax of free SN38 [4]	AUC0–24 of prodrug [4]	Cmax of prodrug [4]	CL of prodrug [4]	MRT0–24 of prodrug [4]	other results
CCc1c2c(nc3ccc(O)cc13)-c1cc3c(c(=O)n1C2)COC(=O)[C@]3(O)CC [SN38, 7-Ethyl-10-hydroxycamptothecin, reference compound]	20.4 ± 1.8 nM	–	–	–	–	–	–	–	–	–	–	–	–	–	–	–	–	–	–	–	–
chitosan-(C10-OH)SN38 [CS-(10s)SN38]	–	24.6 ± 1.24 g	20.0 ± 1.73 g	27.7%	2.37 ± 0.19 g	Partial tumor tissue necrosis	22.7 ± 1.96 g	20.4 ± 2.11 g	47.8 ^a, ^b %	1.71 ± 0.21 g	extensive tissue necrosis	16.5%±0.7%	128.0±1.8 nm	21.1±0.5 mV	15 µg/mL	3,057.78±637.61 μg/L	89.84±8.01 ×10^3 μg⋅h/L	46.89±6.56 ×10^3 μg/L	1.83 ± 0.17 mL/min/kg	4.90 ± 0.66 h	T1/2 of prodrug [4]: 5.40 ± 1.29 h; IC50 [1, 8]: 3500 nM; fold more potent than CPT-11 ([1]; CT26 cells): 13.3 fold
CCc1c2c(nc3ccc(OC(=O)N4CCC(N5CCCCC5)CC4)cc13)-c1cc3c(c(=O)n1C2)COC(=O)[C@]3(O)CC [CPT-11, irinotecan, reference compound]	46700 nM	–	–	–	–	–	23.6 ± 1.67 g	19.8 ± 1.73 g	23.5%	2.51 ± 0.36 g	Partial tumor tissue necrosis	–	–	–	–	–	–	–	–	–	–
chitosan-(C20-OH)SN38 [CS-(20s)SN38]	–	24.1 ± 1.31 g	20.6 ± 1.31 g	31%	2.24 ± 0.27 g	Partial tumor tissue necrosis	21.5 ± 2.52 g	19.6 ± 1.57 g	64.7% and 64.7 ^a, ^c, ^d %	1.15 ± 0.09 g	extensive tissue necrosis	17.4%±0.8%	122.4±1.1 nm	22.3±0.4 mV	12 µg/mL	2,489.43±153.63 μg/L	133.07±11.10 ×10^3 μg⋅h/L	48.43±4.27 ×10^3 μg/L	1.2 ± 0.17 mL/min/kg	4.94 ± 1.58 h	T1/2 of prodrug [4]: 7.05 ± 2.04 h; IC50 [1, 8]: 1800 nM; fold more potent than CPT-11 ([1]; CT26 cells): 25.9 fold; drug release compared with CS-(10s)SN38 [5]: slower drug release
